Key:
[1] = tested on: T1, His6-CssR (Corynebacterium glutamicum RES167), ORF:46f2a94e; assay: EMSA; conditions: EMSA: 10 mM Tris-HCl pH 7.4, 5 mM MgCl2, 50 mM KCl, 5% glycerol, 0.1% NP40, 1 ug poly(dI:dC), 0.5 mM EDTA, 20 ng DNA in 20 ul, room temperature 30 min
T1 sequence: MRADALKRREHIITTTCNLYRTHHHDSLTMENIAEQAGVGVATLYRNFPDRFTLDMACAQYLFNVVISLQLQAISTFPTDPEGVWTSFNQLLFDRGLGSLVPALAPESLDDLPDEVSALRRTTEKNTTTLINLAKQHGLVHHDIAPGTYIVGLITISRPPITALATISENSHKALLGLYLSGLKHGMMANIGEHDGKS

[2] = tested on: T1, His6-CssR (Corynebacterium glutamicum RES167), ORF:46f2a94e; assay: DNase I footprinting; conditions: EMSA: 10 mM Tris-HCl pH 7.4, 5 mM MgCl2, 50 mM KCl, 5% glycerol, 0.1% NP40, 1 ug poly(dI:dC), 0.5 mM EDTA, 20 ng DNA in 20 ul, room temperature 30 min
[3] = biological target: His6-CssR (C. glutamicum stress-sensing regulator, NCgl1578) (Corynebacterium glutamicum RES167); assay: SEC; Superdex 75 10/300 GL, 50 mM potassium phosphate pH 7.4, 0.15 M NaCl; calibrated with a low molecular weight gel filtration kit (Kav versus log molecular weight); native mass 52 kDa
[4] = tested on: His6-CssR (Corynebacterium glutamicum RES167); assay: EMSA; conditions: apparent KD; EMSA: 10 mM Tris-HCl pH 7.4, 5 mM MgCl2, 50 mM KCl, 5% glycerol, 0.1% NP40, 1 ug poly(dI:dC), 0.5 mM EDTA, 20 ng DNA in 20 ul, room temperature 30 min

Substance | binding [1] | further results
AACACCGCGAATTATAGACTGAACTGGTACTTGGGAAGCTTTTTATAGTCATATGCGTTGAGATACGTGGACGACAAAGCACCAGTTAGTTGCCTTCCCAGTCCAGCCCACATCCGATTTCTAAATTAGGAGCACATC (double strand) [mtr promoter] | no binding | –
GGTATTGGGCGCATGCCATGTCCAGTGTGAAGCGATCGGGGAAGTTTCGGTATAAAGTTGCAACACCCACTCCTGCCTGTTCTGCAATGTTTTCCATGGTGAGCGAATCGTGATGGTGTGTGCGGTAGAG (double strand) [131-bp cssR coding region control] | no binding | –
GAAGTTTTTCAAAGTGTCTGACGTTGAAAACGGTGAGTTCACAACTAGGGTGAATGGTGCACGTGATGCTGCACTTTTACGTTTACTACTTTGAGGGAAAC (double strand) [trx promoter] | no binding | –
CGTAATTATTTCCGCGACAAGCTATTTGCAAGCTATGTGCAGGCTCATTGCACAAGTTCAGCGCGGAGACACGTCCTAAAAAATACTTATGAAATTATGTTCGACACCGAAATGTCACCTGAAACTTCAACCAAGCCGCCAGTGCACCTATTCCACAAACCAAAAAATCCGCCAACACGAATGCGGCGGATTTTTAAGATGTACAGG (double strand) [mshC promoter] | no binding | –
GTTGTTGTCCTCTAGTTGACAGCGGGGGTGGTGGTGGTCCTAAAATAGCCTACGATAACTGATAGTGTTTCCTCCACTTACGGAAGAAGATACATGAATACCCCTCTTTTGAGAAGCTCTGGGCTCTCCAT (double strand) [131-bp PcssR] | binds | Kd [1]: 17 nM
CGTTTTAGTGCGTCTGCTCTCATGTTGTTGTCCTCTAGTTGACAGCGGGGGTGGTGGTGGTCCTAAAATAGCCTACGATAACTGATAGTGTTTCCTCCACTTACGGAAGAAGATACATGAATACCCCTCTTTTGAGAAGCTCTGGGCTCTCCATCCGCGACACACCCTTCGCCGATGTTGAGATAGCTCCAGACAGCGGACTCAC (double strand) [PcssR footprint fragment] | – | binding [2]: binds
GATCACCGCATGTGAAACAAGCGGATACGCAATGAGCATCCCCCACGCCCACTGCACATTAAACACCCAATTCAACACCGCAAAACCCACCAAAAACAGCAGCGTCGCGATCACACAAGCAGCGTCAGATCTTTGCGGCATAGCGCCATC (double strand) [mrx1 promoter] | no binding | –
His6-CssR (C. glutamicum stress-sensing regulator, NCgl1578) (natural protein) | – | stoichiometry N [3]: 2
131-bp PcssR | – | Kd [4]: 17 nM

Reference: article PMC8176726
